Data on four molecules can be found in patent US20250121078A1, “PEPTIDE DRUG CONJUGATES AND THEIR USES” (priority 2023, published 2025).

Data set [1] addresses T1, LHRHR, also known as GnRHR (Homo sapiens, UniProt P30968).
T1 sequence (P30968 1-328): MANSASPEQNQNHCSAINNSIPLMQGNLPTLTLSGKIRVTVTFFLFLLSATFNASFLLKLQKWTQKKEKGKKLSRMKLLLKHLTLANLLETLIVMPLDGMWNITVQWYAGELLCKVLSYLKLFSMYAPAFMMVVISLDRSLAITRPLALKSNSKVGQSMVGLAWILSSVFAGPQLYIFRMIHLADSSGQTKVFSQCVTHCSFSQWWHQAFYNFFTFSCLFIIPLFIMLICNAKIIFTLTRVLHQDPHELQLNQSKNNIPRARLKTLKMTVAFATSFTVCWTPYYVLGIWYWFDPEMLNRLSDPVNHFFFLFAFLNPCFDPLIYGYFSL
Put plainly: Radioligand binding assay ([125I]-[D-Trp6]-LHRH displacement). How it is done: An amount of 2 μg of a purified membrane with LHRHR, also known as GnRHR, was incubated with 0.18 nM [125I]-[D-Trp6]-LHRH and compounds of interest in the incubation buffer (50 mM HEPES, pH 7.4, 5 mM MgCl2, 1 mM CaCl2, and 0.2% BSA). The reaction mixtures were incubated for 1 h at 25° C. and then were transferred to a 96-well GF/B filter plate (Millipore Corp., Billerica, MA, USA), which were terminated by manifold filtration and washed with a wash buffer (50 mM HEPES, pH 7.4, and 100 mM NaCl) for six times. The radioactivity bound to the filter was measured by a Topcount® system (PerkinElmer Inc., Waltham, MA, USA). IC50 values were determined by the concentration of a compound required to inhibit 50% of the specific binding of [125I]-[D-Trp6]-LHRH and calculated by nonlinear regression (GraphPad Software, San Diego, CA, USA). The design of these drug conjugates is to actively targeting LHRH-receptor at tumor site and facilitate drug conjugate accumulation in situ. Therefore, selective and strong binding of the synthetic peptide ligand with the receptor is important to allow enrichment of these conjugates, followed by release of the drug payload in the tumor microenvironment.
Compounds of the invention have a binding as low as 0.17 nM.

A short description of data set [2]: In vivo pharmacokinetic profile, mouse single IV dose. The note with it: for Vss (I/kg) / clearance / AUC(0-t): Mouse IV, dose 5 mg/kg; for clearance / AUC(0-t): in vivo; for AUC(0-t): read-out: AUC(0-24 hr); for AUC coverage: single intravenous dose. How it is done:
Pharmacokinetic properties of compounds of the invention were measured following the procedures described in Liu et al., Bioconjugate Chem. 2017, 28, 7, 1878-1892.

Data set [3] concerns HCC1806 triple negative breast cancer. Put plainly: In vivo anti-tumor activity in triple-negative breast HCC1806 tumor model. The arrangement: species or system immunodeficient nude mice. The note with it: 1 mg/kg to 2.5 mg/kg, every other week, once a week, or twice a week. How it is done:
In vivo anti-tumor activity of Compound 16 was evaluated in triple-negative breast HCC1806 tumor model. HCC1806 cells were suspended with RPMI 1640 medium (phenol red free) and Matrigel™ in 1:1 ratio, and implanted subcutaneously (1×10^6 cells/flank) into the left flank of the immunodeficient nude mice. The tumor volume in mm^3 was calculated by the formula: Volume=(length×width^2)/2. Tumor-bearing mice were randomized (n=8 per group) when the average tumor volume was approximately at 210 mm^3 on day 10 after inoculation. Compound 16 was dissolved in DMA, cremorphor and 5% dextrose solution (1:2:27, v/v/v). Tumor-bearing mice were intravenously administered once weekly (qw) or bi-weekly (b2w) with multiple doses of vehicle control (5 mL/kg) and DBPR376 (2.5 mg/kg). Tumor size and body weight of each animal were measured twice weekly during the study period.
Compounds 8, 9, 11, 14, 16, 25, 26, and 27 were evaluated following the procedure described above.

Where a SMILES comes first, the peptide text is derived from it. [ ]: non-standard residue; d: D form. The star is where a group is joined. X1 = COc1cc2cc(c1Cl)N(C)C(=O)C[C@H](OC(=O)[C@H](C)N(C)C(=O)CCSSCCC(=O)*)[C@]1(C)O[C@H]1C(C)[C@@H]1C[C@@](O)(NC(=O)O1)[C@H](OC)/C=C/C=C(\C)C2; d(hArg(Et2)) = CCN=C(NCC)NCCCC[C@@H](N)C(=O)O; dPhe(4-Cl) = N[C@H](Cc1ccc(Cl)cc1)C(=O)O; d2Nal = N[C@H](Cc1ccc2ccccc2c1)C(=O)O; d3Pal = N[C@H](Cc1cccnc1)C(=O)O

Consider `COc1cc2cc(c1Cl)N(C)C(=O)C[C@H](OC(=O)[C@H](C)N(C)C(=O)CCSSCCC(=O)NCCCC[C@@H](NC(=O)[C@H](Cc1ccc(O)cc1)NC(=O)[C@H](CO)NC(=O)[C@@H](Cc1cccnc1)NC(=O)[C@@H](Cc1ccc(Cl)cc1)NC(=O)[C@@H](Cc1ccc3ccccc3c1)NC(C)=O)C(=O)N[C@@H](CC(C)C)C(=O)N[C@@H](CCCNC(=N)N)C(=O)N1CCC[C@H]1C(=O)N[C@H](C)C(N)=O)[C@]1(C)O[C@H]1C(C)[C@@H]1C[C@@](O)(NC(=O)O1)[C@H](OC)/C=C/C=C(\C)C2` (some centres unmarked) [Compound 8] (Ac-[d2Nal][dPhe(4-Cl)][d3Pal]SY[dK](X1)LRP[dA]-NH2), for which the IC50 in data set [1] was 0.1 to 1 nM. In addition, in data set [2], the “Vss (I/kg)” value worked out at 0.25 I/kg, the clearance was 1.6 mL/min/kg, the AUC(0-t) was 55100 ng·h/mL and the AUC coverage result is recorded as “extensive AUC coverage”. Moreover, in data set [3], the “inhibition of in vivo tumor growth” value is given as “effectively inhibited”.
With `CCNC(=NCCCC[C@@H](NC(=O)[C@H](CC(C)C)NC(=O)[C@@H](CCCCNC(=O)CCSSCCC(=O)N(C)[C@@H](C)C(=O)O[C@H]1CC(=O)N(C)c2cc(cc(OC)c2Cl)C/C(C)=C/C=C/[C@@H](OC)[C@@]2(O)C[C@H](OC(=O)N2)C(C)[C@@H]2O[C@@]12C)NC(=O)[C@H](Cc1ccc(O)cc1)NC(=O)[C@H](CO)NC(=O)[C@@H](Cc1cccnc1)NC(=O)[C@@H](Cc1ccc(Cl)cc1)NC(=O)[C@@H](Cc1ccc2ccccc2c1)NC(C)=O)C(=O)N1CCC[C@H]1C(=O)N[C@H](C)C(N)=O)NCC` (some centres unmarked) [Compound 14] (Ac-[d2Nal][dPhe(4-Cl)][d3Pal]SY[dK](X1)L[d(hArg(Et2))]P[dA]-NH2), the 50% inhibitory concentration (IC50) in data set [1] lay within 1 to 10 nM. For the same molecule, in data set [2], the “Vss (I/kg)” value came to 0.2 I/kg, the clearance turned out to be 0.9 mL/min/kg, the AUC(0-t) was 88300 ng·h/mL and the AUC coverage entry is on record as “extensive AUC coverage”. For the same molecule, in data set [3], the “inhibition of in vivo tumor growth” value is listed as “effectively inhibited”.
For the molecule `COc1cc2cc(c1Cl)N(C)C(=O)C[C@H](OC(=O)[C@H](C)N(C)C(=O)CCSC(=O)c1ccc(CN(CCOCCOCCn3nnc4c3CC[C@H]3[C@@H](CC4)[C@@H]3COC(=O)NCCCC[C@@H](NC(=O)[C@H](Cc3ccc(O)cc3)NC(=O)[C@H](CO)NC(=O)[C@@H](Cc3cccnc3)NC(=O)[C@@H](Cc3ccc(Cl)cc3)NC(=O)[C@@H](Cc3ccc4ccccc4c3)NC(C)=O)C(=O)N[C@@H](CC(C)C)C(=O)N[C@@H](CCCNC(=N)N)C(=O)N3CCC[C@H]3C(=O)N[C@H](C)C(N)=O)C(=O)C3(c4ccc(Cl)cc4)CCCCC3)cc1)[C@]1(C)O[C@H]1[C@H](C)[C@@H]1C[C@@](O)(NC(=O)O1)[C@H](OC)/C=C/C=C(\C)C2` [Compound 16], in data set [2], the “Vss (I/kg)” value is recorded as 0.5 I/kg, the clearance was determined as 15.5 mL/min/kg and the AUC(0-t) turned out to be 4860 ng·h/mL. Also, the “inhibition of in vivo tumor growth” value in data set [3] is “effectively inhibited”.
`COc1cc2cc(c1Cl)N(C)C(=O)C[C@H](OC(=O)[C@H](C)N(C)C(=O)CCSC(=O)c1ccc(CN(CCOCCOCCn3nnc4c3CC[C@H]3[C@@H](CC4)[C@@H]3COC(=O)NCCCC[C@@H](NC(=O)[C@H](Cc3ccc(O)cc3)NC(=O)[C@H](CO)NC(=O)[C@@H](Cc3cccnc3)NC(=O)[C@@H](Cc3ccc(Cl)cc3)NC(=O)[C@@H](Cc3ccc4ccccc4c3)NC(C)=O)C(=O)N[C@@H](CC(C)C)C(=O)N[C@H](CCCNC(=N)N)C(=O)N3CCC[C@H]3C(=O)N[C@H](C)C(N)=O)C(=O)C3(c4ccc(Cl)cc4)CCCCC3)cc1)[C@]1(C)O[C@H]1[C@H](C)[C@@H]1C[C@@](O)(NC(=O)O1)[C@H](OC)/C=C/C=C(\C)C2` [Compound 27]: in data set [2], the “Vss (I/kg)” value is listed as 0.1 I/kg, the clearance was found to be 6.4 mL/min/kg and the AUC(0-t) worked out at 15900 ng·h/mL. Further, the “inhibition of in vivo tumor growth” value in data set [3] is reported as “effectively inhibited”.

For orientation: IC50 means the concentration at which inhibition is half-maximal. Low readings indicate higher potency, high ones lower potency. In general, clearance refers to a measure of how efficiently the substance is removed, as volume per time.
